According to article PMC5741625, “Methylation-regulated decommissioning of multimeric PP2A complexes” (Nature Communications, 2017):
Values belong to the molecule of their own block, whether it stands above or below them.

Assays:
[1] = target: PP2A scaffold subunit (Homo sapiens) (UniProt P30153); settings: cited from earlier work
[2] = target: T1, PP2A scaffold subunit (Aα) alone, as tested against TIPRL in Supplementary Fig. 6b (human, UniProt P30153 8-589); test: not stated; Supplementary Fig. 6; TIPRL with PP2Ac or the scaffold subunit alone; settings: both partners purified
T1 construct: PP2A scaffold subunit Aα, human; Aα (8-589) is named for biochemical experiments; source: E. coli BL21(DE3), purified (glutathione resin, Source 15Q)
T1 sequence (P30153 8-589): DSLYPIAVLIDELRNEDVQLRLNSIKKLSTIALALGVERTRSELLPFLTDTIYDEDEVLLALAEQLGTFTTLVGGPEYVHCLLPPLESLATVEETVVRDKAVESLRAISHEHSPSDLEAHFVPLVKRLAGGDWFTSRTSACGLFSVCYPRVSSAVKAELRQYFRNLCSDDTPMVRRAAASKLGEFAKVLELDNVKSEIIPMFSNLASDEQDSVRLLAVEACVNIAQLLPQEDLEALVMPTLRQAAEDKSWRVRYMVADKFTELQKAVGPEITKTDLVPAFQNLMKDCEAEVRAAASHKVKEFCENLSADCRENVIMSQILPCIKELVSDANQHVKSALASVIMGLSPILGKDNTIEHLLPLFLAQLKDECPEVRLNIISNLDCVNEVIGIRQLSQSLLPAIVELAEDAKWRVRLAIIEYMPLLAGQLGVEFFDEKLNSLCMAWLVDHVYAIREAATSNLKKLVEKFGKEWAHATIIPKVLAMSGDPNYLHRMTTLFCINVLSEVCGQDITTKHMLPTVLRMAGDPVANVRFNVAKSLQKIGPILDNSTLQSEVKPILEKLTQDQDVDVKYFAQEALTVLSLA

[3] = target: T2, PP2A catalytic subunit Cα (1-309) (human, UniProt P67775 1-309); test: as above; settings: both partners purified
T2 construct: source: Hi-5 insect cells (baculovirus), purified (Ni-NTA, Source 15Q)
T2 sequence (P67775 whole entry): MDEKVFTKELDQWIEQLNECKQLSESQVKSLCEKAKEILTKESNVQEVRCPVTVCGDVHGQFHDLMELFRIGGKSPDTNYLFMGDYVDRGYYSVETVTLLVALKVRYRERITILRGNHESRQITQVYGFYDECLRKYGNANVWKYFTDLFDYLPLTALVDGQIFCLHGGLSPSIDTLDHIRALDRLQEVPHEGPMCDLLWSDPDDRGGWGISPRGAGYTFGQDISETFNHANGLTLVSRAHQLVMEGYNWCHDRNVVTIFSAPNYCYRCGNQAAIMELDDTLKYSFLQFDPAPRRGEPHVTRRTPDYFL

[4] = target: GST-tagged methylated PP2A core enzyme (GST-Aα bound to carboxyl-methylated Cα) (human, UniProt P30153 8-589; P67775 1-309, carboxyl-methylated C-terminus (L309, the last residue of PP2Ac)); test: cell-based or functional assay
Sequence of GST-tagged methylated PP2A core enzyme (GST-Aα bound to carboxyl-methylated Cα) (P30153 8-589, chain 1 of 2): as the sequence (P30153 8-589) above
Sequence of GST-tagged methylated PP2A core enzyme (GST-Aα bound to carboxyl-methylated Cα) (P67775 whole entry, chain 2 of 2): as the sequence (P67775 whole entry) above

[5] = target: T3, GST-tagged unmethylated PP2A core enzyme (GST-Aα bound to Cα) (human, UniProt P30153 8-589; P67775 1-309); test: BLI + pull-down; BLI: anti-GST sensors loaded with 150 nM GST-PP2A-AC dimer, TIPRL 0-30 μM, 300 s association and 300 s dissociation, 1:1 model; pull-down of titrated TIPRL by GST-tagged core enzyme on GS4B; settings: both partners purified
T3 construct: PP2A scaffold subunit Aα, human, residues 8-589; The methods also speak of full-length Aα in pGEX-2T; also called GST-PP2A core enzyme; GST-PP2A-AC dimer; source: GST-Aα: E. coli BL21(DE3), purified (glutathione resin, Source 15Q); Cα: Hi-5 insect cells (baculovirus), purified (Ni-NTA, Source 15Q)
T3 sequence (P30153 8-589, chain 1 of 2): as the sequence (P30153 8-589) above
T3 sequence (P67775 whole entry, chain 2 of 2, the tested form may be a part): as the sequence (P67775 whole entry) above

[6] = target: T4, PP2A scaffold subunit Aα (8-589), as in the crystal of the PP2A-TIPRL complex (human, UniProt P30153 8-589, selenomethionine-labeled); test: crystal structure; PP2A-TIPRL complex, sitting drop, 18 °C, 0.1 M citric acid pH 5.2, 9% PEG 4000, 0.2 M sodium acetate; 3.8 Å; four copies in the asymmetric unit; settings: both partners purified
T4 construct: PP2A scaffold subunit Aα, human, residues 8-589; also called PP2A-A; A subunit; source: E. coli BL21(DE3), purified; GST removed by thrombin
T4 sequence (P30153 8-589, one chain of several): as the sequence (P30153 8-589) above

[7] = target: T5, PP2A core enzyme (Aα 8-589 and Cα 1-309) as crystallized with TIPRL (human, UniProt P30153 8-589; P67775 1-309, selenomethionine-labeled); test: as above; settings: both partners purified
T5 construct: PP2A scaffold subunit Aα, human, residues 8-589; also called PP2A AC dimer; source: Aα: E. coli BL21(DE3); Cα: Hi-5 insect cells; assembled on glutathione resin, released by on-column thrombin cleavage, purified by ion exchange
T5 sequence (P30153 8-589, chain 1 of 2): as the sequence (P30153 8-589) above
T5 sequence (P67775 whole entry, chain 2 of 2, the tested form may be a part): as the sequence (P67775 whole entry) above

[8] = target: T2, PP2A catalytic subunit Cα (1-309); test: as above; settings: both partners purified

Sequence of PP2A scaffold subunit (Homo sapiens) (P30153 2-589): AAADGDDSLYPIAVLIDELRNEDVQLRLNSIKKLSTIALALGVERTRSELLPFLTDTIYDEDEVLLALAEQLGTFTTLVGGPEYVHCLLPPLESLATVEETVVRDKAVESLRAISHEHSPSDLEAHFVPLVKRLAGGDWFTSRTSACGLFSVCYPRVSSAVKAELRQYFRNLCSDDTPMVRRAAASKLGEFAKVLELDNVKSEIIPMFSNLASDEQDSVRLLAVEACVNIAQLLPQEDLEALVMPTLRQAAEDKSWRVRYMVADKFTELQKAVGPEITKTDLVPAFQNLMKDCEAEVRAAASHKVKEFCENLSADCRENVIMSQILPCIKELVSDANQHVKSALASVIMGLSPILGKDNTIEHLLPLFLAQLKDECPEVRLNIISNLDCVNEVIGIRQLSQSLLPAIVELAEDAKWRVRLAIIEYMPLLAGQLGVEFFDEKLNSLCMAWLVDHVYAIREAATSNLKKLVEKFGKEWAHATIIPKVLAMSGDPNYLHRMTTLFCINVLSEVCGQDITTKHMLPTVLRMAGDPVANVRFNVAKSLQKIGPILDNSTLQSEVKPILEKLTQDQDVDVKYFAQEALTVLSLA

Molecule: PP2Ac (from UniProt P67775)
Kd [1]: 5 nM

Kd [2]: ~10000 nM
Kd [3]: ~600 nM
fold increase of the IC50 of TIPRL for phosphatase activity upon carboxylmethylation of the PP2A core enzyme [4]: ~30 fold
Kd [5]: ~310 nM
B1: TIPRL (TOR signaling pathway regulator), full length, wild type (natural protein, UniProt Q8BH58 1-271, looked up)
chain: MMIHGFQSSHQDFSFGPWKLTASKTHIMKSADVEKLADELHMPSLPEMMFGDNVLRIQHGSGFGIEFNATDALRCVNNYQGMLKVACAEEWQESRTEGEHSKEVIKPYDWTYTTDYKGTLLGESLKLKVVPTTDHIDTEKLKAREQIKFFEEVLLFEDELHDHGVSSLSVKIRVMPSSFFLLLRFFLRIDGVLIRMNDTRLYHEADKTYMLREYTSRESKIANLMHVPPSLFTEPNEISQYLPIKEAVCEKLVFPERIDPNPVDSQSTPSE
notes: TIPRL, full length, for biochemical experiments; Cloned into pQLinkH; His6-tag removed by TEV protease; also called WT TIPRL; source: E. coli BL21 (DE3), purified (Ni-NTA, Source 15Q, Superdex 200)

binding result [6]: binds
binding result [7]: binds
binding result [8]: binds
B2: mouse TIPRL (12-259) (domain or fragment, UniProt Q8BH58 12-259, looked up)
chain: DFSFGPWKLTASKTHIMKSADVEKLADELHMPSLPEMMFGDNVLRIQHGSGFGIEFNATDALRCVNNYQGMLKVACAEEWQESRTEGEHSKEVIKPYDWTYTTDYKGTLLGESLKLKVVPTTDHIDTEKLKAREQIKFFEEVLLFEDELHDHGVSSLSVKIRVMPSSFFLLLRFFLRIDGVLIRMNDTRLYHEADKTYMLREYTSRESKIANLMHVPPSLFTEPNEISQYLPIKEAVCEKLVFPERID
notes: TIPRL, mouse, residues 12-259; also called native TIPRL (12-259); source: E. coli BL21 (DE3), purified (Ni-NTA, Source 15Q, Superdex 200)
